The values that follow come from article PMC3698035, “Nectin-2 is a potential target for antibody therapy of breast and ovarian cancers” (Molecular Cancer, 2013).

This data set concerns the molecule itself. The data set can be described thus: ELISA; ELISA-based time-resolved fluorescence spectroscopy assay; unlabeled Nectin-2-ED-hFc immobilised on a Delfia Clear Strip Plate, Eu-labeled Nectin-2-ED-hFc at 3.2 ug/mL added together with anti-Nectin-2 mAb at 30 ug/mL or a human IgG control, 1.5 h at room temperature. On the technique in general: An ELISA detects its analyte on a solid surface through an enzyme-linked reagent.

B1: Nectin-2-ED-hFc (Fc fusion, human, UniProt Q92692 32-361, looked up)
chain: QDVRVQVLPEVRGQLGGTVELPCHLLPPVPGLYISLVTWQRPDAPANHQNVAAFHPKMGPSFPSPKPGSERLSFVSAKQSTGQDTEAELQDATLALHGLTVEDEGNYTCEFATFPKGSVRGMTWLRVIAKPKNQAEAQKVTFSQDPTTVALCISKEGRPPARISWLSSLDWEAKETQVSGTLAGTVTVTSRFTLVPSGRADGVTVTCKVEHESFEEPALIPVTLSVRYPPEVSISGYDDNWYLGRTDATLSCDVRSNPEPTGYDWSTTSGTFPTSAVAQGSQLVIHAVDSLFNTTFVCTVTNAVGMGRAEQVIFVRETPNTAGAGATGGI
modifications: europium N1 ITC chelate (only on the Eu-labeled copy added in solution in the Nectin-2-Nectin-2 assay)
notes: signal peptide in the construct; Nectin-2, cloned from cDNA of the A549 human lung cancer cell line, extracellular domain a.a; 1-361; Plasmid pcDNA3.1-Nectin-2-ED-hFc; In the Nectin-2-Nectin-2 assay one copy was unlabeled on the plate and the other Eu-labeled in solution; also called Nectin-2 extracellular domain (a.a. 1-361) fused to the human IgG1 Fc region; source: FreeStyle 293 F cells, …
With B1, the binding result was “binds”.
